Among the data in patent US20230414702A1 (INSERM INSTITUT NATIONAL DE LA SANT ET DE LA REC HERCHE M …, published 2023) are Kd values, retold here.

Non-standard residues stand in square brackets, D forms with d. No end group written: not given here. NMeR = CN[C@@H](CCCNC(=N)N)C(=O)O; Nle = CCCC[C@H](N)C(=O)O

Assay [1] addresses T1, CD47 receptor (UniProt Q08722 19-323, limits assumed).
T1 construct: whole, on cells; The assays used a whole MEC-1 cell membrane preparation, not purified CD47; also called membrane preparation from MEC-1 cells
In words: binding to MEC-1 membrane preparation; method not named in Table 3.

The target in assay [2] is T1, CD47 receptor. Briefly: column Kd (OR); biolayer interferometry on Octet RED96, biotinylated MEC-1 membrane preparation on SSA biosensors. A general note: BLI is a label-free optical method that tracks binding on a fibre tip over time.
Assay [3] addresses T1, CD47 receptor. In words: microscale thermophoresis (MST), labeled MEC-1 membrane preparation. On the procedure:
(§1) For all experiments the concentration of the NT.115-labeled membrane was kept constant, while the concentrations of the ligand (peptide) was varied. After a short incubation time (5 min) the samples were loaded into MST premium glass capillaries and the MST analysis was performed using the Monolith NT.115.

The target of assay [4] is T1, CD47 receptor. In words: column Kd(µM)PR; binding to MEC-1 membrane preparation, method not named in Table 4.
Assay [5] deals with T1, CD47 receptor. Briefly: binding to MEC-1 membrane preparation; method not named in Table 3 (same value as the OR column of Table 2).
In assay [6] the target is T1, CD47 receptor. In words: apparent Kd, biolayer interferometry (BI) on Octet RED96, biotinylated MEC-1 membrane preparation on SSA biosensors. The text has this: This system monitors interference of light reflected from two sources (an internal reflection surface and the liquid/solid interface of a fiber optic sensor) to measure the rate of binding of molecules to the biosensor surface. MEC-1 cells membrane preparation is biotinylated with the EZ-Link NHS-PEG4-Biotin kit from Thermo-Scientific and excess biotin is removed using desalting column from Thermo-Scientific. […] Typically, the biosensors were pre-equilibrated in PBS containing either biotinylated membranes or biocytine 100 μg/mL. Biosensors are then equilibrated in assay buffer for 10 min, brought to baseline in assay buffer for 60 sec. and transferred to wells containing peptide in dose-response (association for 120 sec. and dissociation for 300 sec.). The double reference with either membrane-loaded biosensors without any peptide dose-response or biocytine-loaded biosensors with each peptide dose-response were run in parallel for background signal double subtractions.

Assay [7] concerns the target T1, CD47 receptor. In words: apparent Kd, microscale thermophoresis (MST), Monolith NT.115, NT.115-labeled membrane. On the procedure: as §1
On the technique in general: MST reads how a fluorescent partner responds to local heating, with and without ligand.

T1 sequence (Q08722 19-323 limits assumed): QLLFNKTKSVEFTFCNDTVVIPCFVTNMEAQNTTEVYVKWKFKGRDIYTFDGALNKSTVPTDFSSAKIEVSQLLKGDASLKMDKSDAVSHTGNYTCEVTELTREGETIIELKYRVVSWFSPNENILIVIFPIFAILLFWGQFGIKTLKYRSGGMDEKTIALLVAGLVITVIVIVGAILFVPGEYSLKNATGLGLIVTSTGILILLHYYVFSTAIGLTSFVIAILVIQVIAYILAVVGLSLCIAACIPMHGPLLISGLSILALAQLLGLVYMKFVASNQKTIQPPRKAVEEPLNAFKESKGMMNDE

B1: M/Nle, kRFYVV(Nle)WKk (peptide)
peptide: H-[dK]RFYVV[Nle]WK[dK]-OH
SMILES: CCCC[C@H](NC(=O)[C@@H](NC(=O)[C@@H](NC(=O)[C@H](Cc1ccc(O)cc1)NC(=O)[C@H](Cc1ccccc1)NC(=O)[C@H](CCCNC(=N)N)NC(=O)[C@H](N)CCCCN)C(C)C)C(C)C)C(=O)N[C@@H](Cc1c[nH]c2ccccc12)C(=O)N[C@@H](CCCCN)C(=O)N[C@H](CCCCN)C(=O)O
B1: the Kd with CD47 receptor [1] is 18 µM.

As for KRFYVVMWKK ((D)-Lys at position 1 and (D)-Lys at position 10, also called 4(PKHB1)) [PKHB1, H-(D)K R F Y V V M W K (D)K-OH], the Kd stood at 43 µM with CD47 receptor [2], 3.04 µM in the assay with CD47 receptor [3], 22.6 µM in the assay with CD47 receptor [4] and 43 µM in the assay with CD47 receptor [5].

B2: PKT15, H-(D)K ψ(CONMe)R F Y V V M W ψ(CONMe)K (D)K-OH (peptide)
peptide: KRFYVVMWKK
modifications: (D)-Lys at positions 1 and 10; N-methyl pseudopeptide bonds ψ(CONMe) between (D)Lys1 and Arg2 and between Trp8 and Lys9
As for B2, in the assay with CD47 receptor [4], the Kd was determined as 16 µM.

Regarding H-[dK][NMeR]FYVV[Nle]WK[dK]-OH [PKT16, H-(D)K ψ(CONMe)R F Y V V X W K (D)K-OH], the Kd with CD47 receptor [6] is 7.4 µM; with CD47 receptor [7], 1.6 µM; with CD47 receptor [4], 12.1 µM.

B3: PKT11, H-(D)K ψ(CONMe)R F Y V V M W K (D)K-OH (peptide)
peptide: KRFYVVMWKK
modifications: (D)-Lys at positions 1 and 10; N-methyl pseudopeptide bond ψ(CONMe) between (D)Lys1 and Arg2
B3: the Kd in the assay with CD47 receptor [4] was 21.7 µM.

B4: 4N1K (peptide)
peptide: KRFYVVMWKK
notes: Decapeptide that mimics the C-terminal domain of TSP-1
Turning to B4, the Kd with CD47 receptor [2] was 19 µM; in the assay with CD47 receptor [3] it was 2.28 µM; with CD47 receptor [5], 19 µM.

In the assay with CD47 receptor [1], [dK]RFYVVAWK[dK] (Ala-scan analogue of PKHB1) [M7/A, kRFYVV(A)WKk] displayed a Kd of 42 µM.

B5: R2/A, k(A)FYVVMWKk (peptide)
peptide: H-[dK]AFYVVMWK[dK]-OH
SMILES: CSCC[C@H](NC(=O)[C@@H](NC(=O)[C@@H](NC(=O)[C@H](Cc1ccc(O)cc1)NC(=O)[C@H](Cc1ccccc1)NC(=O)[C@H](C)NC(=O)[C@H](N)CCCCN)C(C)C)C(C)C)C(=O)N[C@@H](Cc1c[nH]c2ccccc12)C(=O)N[C@@H](CCCCN)C(=O)N[C@H](CCCCN)C(=O)O
notes: Ala-scan analogue of PKHB1
Take B5: the Kd in the assay with CD47 receptor [1] stood at 6.2 µM.

B6: PKT17, H-(D)K ψ(CONMe)R F Y V V L W K (D)K-OH (peptide)
peptide: H-[dK][NMeR]FYVVLWK[dK]-OH
SMILES: CC(C)C[C@H](NC(=O)[C@@H](NC(=O)[C@@H](NC(=O)[C@H](Cc1ccc(O)cc1)NC(=O)[C@H](Cc1ccccc1)NC(=O)[C@H](CCCNC(=N)N)N(C)C(=O)[C@H](N)CCCCN)C(C)C)C(C)C)C(=O)N[C@@H](Cc1c[nH]c2ccccc12)C(=O)N[C@@H](CCCCN)C(=O)N[C@H](CCCCN)C(=O)O
The molecule B6 came in with a Kd with CD47 receptor [4] of 12 µM.

B7: K9/A, kRFYVVMW(A)k (peptide)
peptide: H-[dK]RFYVVMWA[dK]-OH
SMILES: CSCC[C@H](NC(=O)[C@@H](NC(=O)[C@@H](NC(=O)[C@H](Cc1ccc(O)cc1)NC(=O)[C@H](Cc1ccccc1)NC(=O)[C@H](CCCNC(=N)N)NC(=O)[C@H](N)CCCCN)C(C)C)C(C)C)C(=O)N[C@@H](Cc1c[nH]c2ccccc12)C(=O)N[C@@H](C)C(=O)N[C@H](CCCCN)C(=O)O
notes: Ala-scan analogue of PKHB1
As to B7, the Kd with CD47 receptor [1] amounted to 27 µM.

For Ac-KRFYVVMWKK-NH2 [peptide 2, Ac-KRFYVVMWKK-NH2], the Kd with CD47 receptor [2] amounted to 40 µM; with CD47 receptor [3], 1.2 µM.
